Data taken from patent publication US20250122482A1.

Target: mouse-TfR Fab (8D3) fused to SpyCatcher
Experiment: cell-based or functional assay

soluble SpyTag peptide (peptide; modification not given; by the resolver: SpyCatcher is fused to one Fab chain and forms an isopeptide bond with SpyTag, whether soluble or on the capsid)
cross conjugation signal (luciferase, transduction assay on mTfR+HEK293) (log reduction): 2
